This is an account of results in paper PMC10516056.

Experiment [1] deals with SPARTA heterodimer (TIR-APAZ/short pAgo complex) from Crenotalea thermophila (Crenotalea thermophila). Kind of experiment: mass photometry.
For experiment [2] the target is unchanged. Briefly: cryo-EM structure.

“And” between values parts separate entries of the source, which are not always exact repeats. Equal values may be shown once.

“SPARTA heterodimer (TIR-APAZ/short pAgo complex) from Crenotalea thermophila”: the stoichiometry N (in general, a count of units in the complex or per binding partner) was 2 and 4 in experiment [1]; 4 in experiment [2].
